# Reference: the DeepSol protein solubility set
# Experiment: soluble on expression in E. coli; label from the status in PepcDB or PDB records
row,Sequence,soluble on expression in E. coli
1,MGSDKIHHHHHHMKSKGSRLSTDCPVEFPKIVSGFAEEVKIRRQSSQGQYAVDSHPPKSPELKHRRQRSSSFVNGKCRNRDLPLLDNKKAQEINTNSHGQDIGIKNLPRQRELLNAKNGIDFTLMVAGQSGLGKTTFINSLFSTSLIDDDIKENKPIIRYKSIVEGDGTHLNFNVIDTPGFGNNMDNAFTWRTMVNYIDEEIRSYIFQEEQPDRTKMVDNRVHCCLYFLRPSNKGIDTLDVVTMKKLAKRVNLIPVIAKSDLLTKEELKNFKTQVREIIRVQDIPVCFFFGDEVLNATQDIFQKYPFSIIASNEYIFNEKGEKVKGRQYKWGAVDIENEKYCDFKILQKTIFDWNLIDLVESTEDYYEKCRSEMLRTRLLKARDCLTTKSVDITEEQRKFLEEEMNFDEIEENKLKNYKCYEIINKTVMDKVATEWDPEFITRQLEAKKKFNELSNREISKFRDWKKSLFMEQENFNQEIEQLNHKLENLQLECQDLEYKLLIGKSSNSHSTDSATLVNVHIKR,not soluble
2,IHVNSKEEAIISLVDVVSKEGYLIDKNQFLKDVLKREETLSTYIGHGIGLPHSQSVGVKNSCITIGKLDTPIEWTEEGEKVDLIFLISVTKDNENNLHLKILSKLARLLMHESFRNQIRCSDEQTVYNLIKEKIEE,not soluble
3,QDSDSTAAVAVLKRAVELDAESRYQQALVCYQEGIDMLLQVLKGTKESSKRCVLRTKISGYMDRAENIKKYLDQEKEDGK,soluble
4,VELKVKRFPISRYQANNEASDDLIKGAFVGLTNVTFSFAGNIVRVVDTGMDILYNLQPIDEFANSITNVSKTVYKTLKKN,not soluble
5,GANRTLIVTTILEEPYVMYRKSDKPLYGNDRFEGYCLDLLKELSNILGFLYDVKLVPDGKYGAQNDKGEWNGMVKELIDHRADLAVAPLTITYVREKVIDFSKPFMTLGISILYRKGTPIDSADDLAKQTKIEYGAVRDGSTMTFFKKSKISTYEKMWAFMSSRQQSALVKNSDEGIQRVLTTDYALLMESTSIEYVTQRNCNLTQIGGLIDSKGYGVGTPIGSPYRDKITIAILQLQEEGKLHMMKEKWWRGNGCPE,soluble
6,MIFTSGANKLNDNRNVRTKISSNRQSIKTAPTKAAEIPEYLQLYQTPPGDDISLTEFDDIAMERLKLLKSFENLKDSVSLYNDEFKDKFRKLCDGTKLIVFPDQKPPHQEEVYELWRRDNIGHFILRLAFCRTPENQKWLTQIEGDFLRFRLRQEREQVLDSALANVNFTIEKLGYTEKQAMIEDLEAACQFNLFEAPNKTFYKVDFIDAIELIRRGSVHLKKGFAYFPFDDLVTILVTKMKNNMMAAMARSFKHLAILEEEGRLLPRLSLLSNNAYSGKDYNGEQPDGSIIVTRHMIDKLSRRSFAPCMKQMHNHLRVNHHLKYGARRQYGLFLKGIGLSLDEAIAMMRDEFTKKITSDKFDKEYGYNIRYMYGKEGRRVAQTAMSCATIILRNPPSAVDCHGCPFRHSEKQVLKQKLGSDAILKKEQIERIAELAELNQYDKACTRYFEFMHNLEEGGLGQLITHPNQFYEESQKIVAERIAAKQESQEAPAPKIEKMDTE,not soluble
7,MSLKITHTEIYRFSIPMEPFVIATGTMHFAQNVLIRIHTDNGLYGLGECSAFPMIVGENQDTCLVMAREFAKLLPGKDPLDIPGRMNDLLGYADRNTTIKSAFDMALFDLAAKHAGQPLYQFLGGNRKKVETDMTIGISSPEKMAQLAQHYQAQGCSILKVKLGKDIHEDIERVAQIRAAVGGMMTIRLDANQGWSFDDALYGLGALAKYDIEFCEQPMRSWYDDRLPELQLNSPIAIMADESCYNHHDARRLINSRSCEYLNIKFSKSGGILEAQKIHEVALQHGMKCMMGGMLESRLAATAKLHFALSAPNIVFFDLDTCMLGHLIDPVVGGMSYEGFILDVPEAPGIGADADPAFLDECESWRIEGHHHHHH,soluble
8,MRVLVSGGGTGGHIYPALALIREIKKLNPEARFLYIGTENGLESTIVPKAGIPFQSIVISGFKRKISLDNVKTVMRFLKGVQDSKRYIRRFNPDIVIGTGGYVCGPVVYAAAKLGIPTIVHEQNSVPGVTNKFLSRYVDKVAVCFEAAAEHFPQSKVVMTGNPRASEVMDQNGMKGKRSVGLSLPKKSVLIFGGSRGARPINDAFVEAIEQFGNKSYEILYVTGEVHYDKVMEAVKQKGNPNNVIIKPFIHNMPEVLTGVDLVVSRAGATTLAELTALGKPSVLIPSPYVTNNHQEKNARSVVDKGAAKMLLEKDLTAETLIRDIDEILLDAQTLQNMKLAAGQLGIPDAANKLYEVMNKLVKK,not soluble
9,MSLEFALKAVTEHGPFTDIGKFDQDRWQLFHTDEDRSEAHDLADQHPEKVGEMAALWMSEAKKYHVLPLSDLGVMGILKMEFKPPVPPSRQYAYYPGTSTVPEHSAANTHGVSFKVLADVEFTADSQGILFAHGSRFGGHALYVKNGKLIYVYNFLGIPPEQRLVGDAPRSGKHVVGVEFIKERMGEYKESYGPARLYVDERIVAEAPIRTMTGHFAITGEGLCIGYDSGDGVSNDYRPKFAFSGGKINKVVFDVGADLYVDVETHLVAAMARDEGHHHHHH,soluble
10,GSDNESDEEVAGKKSFSAQEREYIRQGKEATAVVDQILAQEENWKFEKNNEYGDTVYTIEVPFHGKTFILKTFLPCPAELVYQEVILQPERMVLWNKTVTACQILQRVEDNTLISYDVSAGAAGGVVSPRDFVNVRRIERRRDRYLSSGIATSHSAKPPTHKYVRGENGPGGMIVLKSASNPRVCTFVWILNTDLKGRLPRYLIHQSLAATMFEFAFHLRQRISELGAR,soluble
11,MYVGYLGPSGSFTHNAALKAFPEASLVSLGTITEVIKSYEEGRVDYAVIPVENSIEGSVHESLDYLFHQADIRAVAEIVQPIKQQLMASKHHAKIEKIFSHPQAIAQGKKYIKDHFPHAKIETTASTAFAARYVADNPDQPYAAIAPHAAAKEYGLEILAKDIQEIEKNYTRFWLLGSTVP,not soluble
12,MGSDKIHHHHHHLCRKDASQPSMYDLHRLGWNSFQQLCLTIAREVLAQSVKSFLDSNDGGRDGAFCGTWTPTKNETMSGSFVIQCKFTSKPNALLAKEDIAAELPKIRRLTEKGLCDVYVLMTNAGVSGKQEERIAAELTSAGAKNVLILGGTWITDQIRENTRLRTLVPRVYGLGDLSQILDERAYEQARAVLDSLREDLAKVVMTSAYRNAVDALDRHGFVLLIGEPAAGKTTIASMLAMASADKWKSSVLRKR,not soluble
13,MSLEDYTRIVADRMEGQSQVQVRAEGNVVVERNRTTLNADWADYDQSGDTVTAGDRFALQQDGTLIRGETLTYNLEQQTGEAHNVRMETEHGGRRLQSVSRTAEMLGEGHYKLTETQFNTCSAGDAGWYVKAASVEADREKGIGVAKHAAFVFGGVPIFYTPWADFPLDGNRKSGLLVPSLSAGSDGVSLSVPYYFNLAPNLDATFAPGVIGERGAVFDGQVRYLRPDYAGQSDLTWLPHDKKSGRNNRYQAKWQHRHDISDTLQAGVDFNQVSDSGYYRDFYGNKEIAGNVNLNRRVWLDYGGRAAGGSLNAGLSVLKYQTLANQSGYKDKPYALMPRLSADWRKNTGRAQIGVSAQFTRFSHDSRQDGSRLVVYPDIKWDFSNSWGYVRPKLGLHATYYSLNRFGSQEARRVSRTLPIVNIDSGMTFERNTRMFGGGVLQTLEPRLFYNYIPAKSQNDLPNFDSSESSFGYGQLFRENLYYGNDRINTANSLSAAVQSRILDGATGEERFRAGIGQKFYFKNDAVMLDGSVGKKPRSRSDWVAFASSGIGSRFILDSSIHYNQNDKRAENYAVGASYRPAQGKVLNARYKYGRNEKIYLKSDGSYFYDKLSQLDLSAQWPLTRNLSAVVRYNYGFEAKKPIEVLAGAEYKSSCGCWGAGVYAQRYVTGENTYKNAVFFSLQLKDLSSVGRNPADRMDVAVPGYIPAHSLSAGREGHHHHHH,not soluble
